Laboratory results as given in patent publication US20130336947, “PEPTIDES AND USES” (FUNDACIÓ PRIVADA CENTRE DE REGULACIÓ GENÓMICA, published 2013).

Tests used:
Settings in all cases: tags: N-terminal NLS PKKKRKV; TNT T7 expression from PCR product; label: DIG
ZF6xHunt [1] = molecular target: ZF6xHunt (Artificial); test: EMSA; binds equally to (GCA-GCT)x3
ZF6xHunt [2] = molecular target: ZF6xHunt (Artificial); test: EMSA; binds equally to (GCA)x6
ZF6xHunt [3] = molecular target: ZF6xHunt (Artificial); test: EMSA; specific versus mutated sequences

ZF6xHunt (Artificial), sequence (chain, as listed by the source): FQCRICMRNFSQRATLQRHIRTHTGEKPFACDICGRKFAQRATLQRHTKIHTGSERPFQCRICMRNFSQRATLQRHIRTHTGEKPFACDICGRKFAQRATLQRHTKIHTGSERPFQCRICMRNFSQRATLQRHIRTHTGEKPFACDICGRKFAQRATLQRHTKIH

B1: (GCA)x6 probe (dsDNA)
DNA 1: GCAGCAGCAGCAGCAGCA
DNA 2: TGCTGCTGCTGCTGCTGC
ZF6xHunt [1]
  binding result: binds

B2: (GCA-GCT)x3 alternate probe (dsDNA)
DNA 1: GCAGCTGCAGCTGCAGCT
DNA 2: AGCTGCAGCTGCAGCTGC
ZF6xHunt [2]
  binding result: binds

B3: (CAG)x7 probe (dsDNA)
DNA 1: CAGCAGCAGCAGCAGCAGCAG
DNA 2: CTGCTGCTGCTGCTGCTGCTG
ZF6xHunt [3]
  binding result: binds
